According to article PMC8690919 (Theranostics, 2022):

B1: FD-11A Fab (Fab, V domains shown)
VH: EVQLVESGGGVVQPGRSLRLSCAASGFTFSSYGMHWVRQAPGKGLEWVAVIWYDGSNKYYADSVKGRFTISRDNSKNTLYLQMNSLRAEDTAVYYCAKGPDILTGYYNYYYYGMDVWGQGTMVTVSS
VL: QSVLTQPPSVSGAPGQRVTISCTGSSSNIGAGYDVHWYQQLPGTAPKLLIYGNSNRPSGVPDRFSGSKSGTSASLAITGLQAEDEADYYCQSYDSSLSGFYVVFGGGTKLTVL
B2: FI-3A Fab (Fab, V domains shown)
VH: EVQLLESGGGLIQPGGSLRLSCAASGFTVSSNYMSWVRQAPGKGLEWVSVIYSGGSTYYADSVKGRFTISRDNSKNTLYLQMNSLRAEDTAVYYCARDHVRPGMNIWGQGTMVTVSS
VL: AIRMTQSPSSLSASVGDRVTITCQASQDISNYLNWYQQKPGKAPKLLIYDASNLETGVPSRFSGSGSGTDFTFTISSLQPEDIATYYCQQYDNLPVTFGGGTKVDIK
B3: FD-5D Fab (Fab, V domains shown)
VH: EVQLVESGGGLVQPGGSLRLSCAASGFTFSSYSMNWVRQAPGKGLEWVSYISSSSSTIYYADSVKGRFTISRDNAKNSLYLQMNSLRAEDTAVYYCASPGGITAAGTSVLFGYYGMDVWGQGTTVTVSS
VL: not shown

The binders below were run against T1, SARS-CoV-2 receptor-binding domain (RBD), His-tagged (SARS-CoV-2, UniProt P0DTC2) (assay: crystal structure). Conditions: both partners purified.
T1 construct: also called viral RBD; His-tagged RBD

Binder | binding result
B1 | binds
B2 | binds
B3 | binds
